What is called EC50 is the midpoint of the concentration-response curve. As usually defined, the Kd is the constant that tells how readily two partners part at equilibrium. The low end stands for tighter binding, the high end for weaker binding.

Experiment [1] addresses T1, PD-1 expressed on the cell surface (human, UniProt Q15116 21-288).
T1 construct: also called NSO cells expressing PD-1; NSO-PD-1 cells
Briefly: cell-based competition (FACS): blocked ligand PD-L2-PE binding to NSO-PD-1 cells, MFI.

Experiment [2] deals with T2, hPD-1-His (human, UniProt Q15116 25-170, limits assumed).
T2 construct: also called His-tagged soluble human PD-1; shPD-1
In words: competition ELISA: plate coated with shPD-1 and irrelevant antigen 1:1 (2 ug/ml each); blocked ligand biotin-labeled PD-L1 6 ug/ml, streptavidin-HRP, RLU. The procedure:
(§1) A series of ELISA assays were conducted to evaluate the ability of bispecific molecules of the invention to block ligand binding to PD-1 and […], alone and in combination. […] Plates were coated with a 1:1 mix of His-tagged soluble human PD-1 (shPD-1) and a His-tagged irrelevant antigen (irrAg) (2 μg/ml each), or a 1:1 mix of shPD-1 and a His-tagged soluble human CTLA-4 (shCTLA-4) (2 μg/ml each).
A general note: ELISA stands for enzyme-linked immunosorbent assay.

In experiment [3] the target is T2, hPD-1-His. Briefly: ELISA, hPD-1-His (1 ug/mL) coated, goat anti-human-Fc-HRP detection. The text has this:
FIGS. 8A-8D show the results of ELISA studies measuring the binding of serially diluted binding molecules to human CTLA-4 and human PD-1. […] Goat anti-human-Fc-HRP (1:10,000) was employed as the secondary detection molecule to detect binding. FIGS. 8C-8D show the results of a study on the effect of altering orientations and binding domains on binding. […] Goat anti-human-Fcγ-HRP was employed as the secondary detection molecule to detect binding using PICO chemiluminescent substrate.
Goat anti-human-Fc-HRP (1:10,000) was employed as the secondary detection molecule to detect binding.

For experiment [4], the target named is T1, PD-1 expressed on the cell surface. Briefly: cell-based competition (FACS): blocked ligand PD-L1-PE binding to NSO-PD-1 cells, MFI.
Experiment [5] has as its target T2, hPD-1-His. In words: competition ELISA: plate coated with shPD-1 and shCTLA-4 1:1 (2 ug/ml each); blocked ligand biotin-labeled PD-L1 6 ug/ml, streptavidin-HRP, RLU. The procedure: as §1
Experiment [6] concerns the target T2, hPD-1-His. Briefly: BIACORE, binder captured on F(ab)2 goat anti-human Fc, His-tagged soluble human PD-1 passed over at 6.25-100 nM; Langmuir 1:1 fit. In general terms: In SPR one partner is held on a chip, and binding of the other changes the refractive index at the surface.
The target in experiment [7] is T3, human CTLA-4 expressed on the cell surface (human, UniProt P16410 36-223).
T3 construct: also called huCTLA-4; CHO cells expressing human CTLA-4
T3 sequence: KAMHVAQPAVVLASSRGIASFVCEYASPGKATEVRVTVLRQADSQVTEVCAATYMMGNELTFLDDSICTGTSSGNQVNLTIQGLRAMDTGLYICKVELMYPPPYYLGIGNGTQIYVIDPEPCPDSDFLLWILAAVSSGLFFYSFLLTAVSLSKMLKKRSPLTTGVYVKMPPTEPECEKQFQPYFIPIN
In words: flow cytometry (FACS) on Jurkat cells expressing huCTLA-4 but not PD-1, anti-human Fc secondary antibody, MFI. The text has this: Binding of the DART and TRIDENT molecules to human CTLA-4 was detected using anti-human FC secondary Ab (FACS).
On the technique in general: In flow cytometry, cells or beads pass a laser one at a time.

B1: PD-1 mAb 6 G4P (antibody, human IgG4 S228P, kappa, V domains shown)
VH: QVQLVQSGAEVKKPGASVKVSCKASGYSFTSYWMNWVRQAPGQGLEWIGVIHPSDSETWLDQKFKDRVTITVDKSTSTAYMELSSLRSEDTAVYYCAREHYGTSPFAYWGQGTLVTVSS
VL: EIVLTQSPATLSLSPGERATLSCRASESVDNYGMSFMNWFQQKPGQPPKLLIHAASNQGSGVPSRFSGSGSGTDFTLTISSLEPEDFAVYFCQQSKEVPYTFGGGTKVEIKR
notes: IgG4 with stabilized hinge, kappa; VH/VL of PD-1 mAb 6-ISQ; also called the PD-1 antibody; parental anti-PD-1 antibody
Turning to B1, the “IC50 (read off the curve)” value in experiment [1] is ~500 pM; with hPD-1-His [2] it was ~800 pM; in experiment [4], ~500 pM; in the experiment with hPD-1-His [5] it was ~700 pM. The concentration giving a half-maximal response (EC50) in the experiment with hPD-1-His [3] came out at 300 pM. In addition, binding with hPD-1-His [6] was characterised by a dissociation constant (Kd) of 1100 pM. In experiment [7], the binding result was “no binding (tested: about 100 nM)”.

The values above are taken from patent publication US20210130470A1 (MacroGenics, published 2021).
